Assay: Specific activity of the phosphatase (free phosphate released per time per amount)
Format: biochemical
Description: Phosphatases used in embodiments of the invention have a high specific activity on ADP. The specific activity of the phosphatase used in the examples is the amount of free phosphate released from a substrate per unit time and per amount of phosphatase under a given set of conditions, and may be determined at the rising phase of an enzymatic dose curve, such as the hydrolysis curve as described above. In some embodiments, the phosphatase has a specific activity of greater than 100 pmol/min/μg under optimal conditions. The conditions may include optimal pH, salt concentrations, and the presence of any cofactor. In other embodiments, the phosphatase has a specific activity of greater than 1,000 pmol/min/μg. In still other embodiments, the phosphatase has a specific activity of greater than 20,000 pmol/min/μg. When phosphatases having lower specific activity are used, larger amounts of such phosphatases or longer reaction times may be used to achieve the same level of hydrolysis as can be achieved with a phosphatase having higher specific activity.

B1: rhCD39L2: recombinant human CD39L2, nucleotide phosphatase preferring ADP over ATP, used for coupling (protein, UniProt O75354 1-484, looked up)
Ectonucleoside triphosphate …: MKKGIRYETSRKTSYIFQQPQHGPWQTRMRKISNHGSLRVAKVAYPLGLCVGVFIYVAYIKWHRATATQAFFSITRAAPGARWGQQAHSPLGTAADGHEVFYGIMFDAGSTGTRVHVFQFTRPPRETPTLTHETFKALKPGLSAYADDVEKSAQGIRELLDVAKQDIPFDFWKATPLVLKATAGLRLLPGEKAQKLLQKVKKVFKASPFLVGDDCVSIMNGTDEGVSAWITINFLTGSLKTPGGSSVGMLDLGGGSTQIAFLPRVEGTLQASPPGYLTALRMFNRTYKLYSYSYLGLGLMSARLAILGGVEGQPAKDGKELVSPCLSPSFKGEWEHAEVTYRVSGQKAAASLHELCAARVSEVLQNRVHRTEEVKHVDFYAFSYYYDLAAGVGLIDAEKGGSLVVGDFEIAAKYVCRTLETQPQSSPFSCMDLTYVSLLLQEFGFPRSKVLKLTRKIDNVETSWALGAIFHYIDSLNRQKSPAS
Q: For B1, which “specific activity on ADP” value is on record?
A: The value was > 20,000 pmol/min/μg.

Reference: patent US20140080161A1, “PHOSPHATASE COUPLED KINASE ASSAY” (RESEARCH AND DIAGNOSTIC SYSTEMS, INC., priority 2010, published 2014)
